Earlier results on 1 substance are cited in PMC6133022.

For this data set, the target named is alpha-bungarotoxin (Bungarus multicinctus) (UniProt P60615).
Chain of UniProt P60615 (P60615 22-95): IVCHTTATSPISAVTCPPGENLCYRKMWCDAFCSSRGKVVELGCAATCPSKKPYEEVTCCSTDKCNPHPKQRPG

As a reminder, the Kd is a measure of binding affinity in units of concentration. For the substance alpha7-nAChR (from UniProt P36544), the Kd was 94 pM.
